B1: AT2G35510.1_1: uORF of AT2G35510.1; peptide SEQ ID NO: 11 (nucleic acid)
DNA: ATGGCTCGTCTTTTTCCAAACGATTTCTTCTTCTTCGTCGTCGCCGGTTTAGGGTTTCCGTTGCTGTAG
modifications: listed as DNA, chemistry not fully specified
B2: AT2G42950.1: 5′ UTR of transcript; Magnesium transporter CorA-like family protein (nucleic acid)
DNA: ACATTCATCTCTCTCTCTCAGTCAAATTGTTGTTTTCTTTCTTCGAATCGGTGCAGAAAATTCAGGGAAGTTCTGGGGAAGGTTGTTGCGTTTGACTCCTTTGGCTTAGTTTTCTTTCGAATTCCGTGCTTCCTGATGATCTTACGTGAAATTGCAGCCTAAAATTTCGAGATTGTTTTTTTTACTCAGAAAACGAGATTTGACTGATATGAATCGAAAATCTGTGATTTAAAGTGAAGC
B3: AT2G47210.1: 5′ UTR of transcript; myb-like transcription factor family protein (nucleic acid)
DNA: AAACTGCTGACCGATCCCAAAGGTTGAAAGATTCTTTGGCGCTAAAAAATCCCCAGTTCCCAAATCGGCGTCCTCGTTTGAAACCCTAATTCCTGAATCGAAGCAGATCCTGATCGAATCGAAGGTGTTCGAATGATAGCTACCCAGTAAATTCAGAACCCTAATTAACA
B4: AT3G03070.1: 5′ UTR of transcript; NADH-ubiquinone oxidoreductase-related (nucleic acid)
DNA: AAATAAATGCGTTGTTTGGTACAGCTTCACGAACAATCTCTCTCTCGATAGATTCTTCTTACCTCTGAATTTCTCGTTGTTGGAACA
modifications: listed as DNA, chemistry not fully specified
notes: 5′ UTR of transcript; NADH-ubiquinone oxidoreductase-related
B5: AT3G15030.1: 5′ UTR of transcript; TCP family transcription factor 4 (nucleic acid)
DNA: AGATTTTTTTTTTAAACAAAGAATGGAAAAAAATGAATAAATTTGGGAAACGAGGAAGCTTTGGTTACCCAAAAAAGAAAGAAAGAAAAAATAAAAAAAAATAAAAAGAAAAGCTTTCTCTGGGTTTTTCTTGATTGGTCAATTACACATCTCCCTTTCTCTCTTCTCTCTCTCACCTTCGCTTGCTTTGCTTGCTTCATCTCTTTGGTCTCCTTCTTGCGTTTTCTATTTACTACACAGACCAAACAATAGAGAGAGACTTTAAGCTATAGAAAAAAAGAGAGAGATTCTCTCAAATATGGGTTAGTCCACAATTTTCACTAAACCTCTTCTTCTTAGGATTGTTTTTAGGGTTAGGGTTTTGAGGTGAGGAGAGCAAGTATGCGGGAGTTTCATCCTTTTTGAGTTACTCTGGATTCCTCACCCTCTAACGACGACCACCGTCGCCGCCGCCGCCGCCGTCTCGACGAATATGCTCTACCA
B6: AT3G63340.1: 5′ UTR of transcript; Protein phosphatase 2C family protein (nucleic acid)
DNA: TCTTCTTCTTCGTTTTCAGGCGGGTGGAGGAGCTCAGAGCCTTCCAGAGGTAACCAACCTTTTATTACCGACAAGATTCTGCCACACAATTATTACATATTTTTGTTCCCATGAAGCAATTGTTCCTTTCAAGCATGTTTACGAGCAAAAGAGTGAAAGGGTAGCTTGATTTTTGTCTACTCTAGCTTCATTTTCTGGCGATCTTTACTTGAGATTTAAACATTTTGCTCTCGGATTGATAATAAAGAAGAATTTGGAATATCAGTAGGTTTGGTTAGGACTCTCGGATTCTGTTGTCGGTTAGATATTTGTTTTGTTTAATCCCTAGATTTAGCAGAGAAATCCCTCAAATCTCACACAATCCATGTAAGGAAGAAG
B7: AT2G35510.1: 5′ UTR of transcript; similar to RCD one 1 (nucleic acid)
DNA: CAAGAGTAGACCGCCGACTTAGATTTTTTCGCCGACGAGAGAATATATATAAATGGCTCGTCTTTTTCCAAACGATTTCTTCTTCTTCGTCGTCGCCGGTTTAGGGTTTCCGTTGCTGTAGCAATTTTCTCTCGCTTCTCTCTCCCCTTTTACAGTTTCTCTTATATTGCTCTTGCCTTGCGTCCAATCTCAAGAGTTCATAAGAGTTGACATTTGTGAACATCGAAGAAATACGGTGACGTTTCTTCTCTGATTACTTTTTGCCAACATGAATACTAATGTATTTATCAACAAGTGCTACAGCCTGTTTTTTTCGAAGCTGTTGGTGAGTTCCCATCCTTAGTACTGCTAGACAGTTCGGTGTGTTAGTTGACTTTATATTCAAGGTTATAGGTTTAGTGTTGTTAGTAGAGAAAA
B8: AT3G18140.1: 5′ UTR of transcript; Transducin/WD40 repeat-like superfamily protein (nucleic acid)
DNA: ATGAGAAAAGCTTGGTAAAAACCCTATTTTTCTTCTTCTCTTCAATTTACAGTTCTCTGCACCTTTTTCTTTCCCCTGTTTTTTGATCCTCAATCACCAAACCCTAGCTTGTTCTTCTGTTGATTATTTCGAAAAGGGGGTTTGTTTGTTTTCTGGGAATCAGCAAAAATCACGAAATGGTTGGTTTAATATTTCAATCGGGATAAAATCGATCGAAA
B9: AT3G56010.1: 5′ UTR of transcript (nucleic acid)
DNA: GTGTTTAGCTTCTTCACTACCACACAGAAACAGAGTTTCCGTCTTTCATCTTCCTCCATATGCGTCGCTCTTAAAAACCTAATTCACA
modifications: listed as DNA, chemistry not fully specified
notes: 5′ UTR of transcript
B10: AT4G11110.1: 5′ UTR of transcript; SPA1-related 2 (nucleic acid)
DNA: CTTACTTAAACACAGTCAAATTCATTTTCTGCCTTAGAAAAGATTTTTATCGAAAATCGACGTTTTTGAAAAAACTCAAATTATCGTCGTTTTGTTCTCAGATTTCTTCTGCTCTCTTCTTCTTCTCCTTCTTCTTCGTTCCACCGCCTCTGTTGCTTTATCTTCTTCTTCCTTCCTTCGATTGTTGATTACGTCGGTGGATCTTTGTTCTCCTCTGTGTTGTTTTCATTGCTAGATTTCGTCAATGATTGGCTTCTCACGATTCGATTTTTCCGGCTCCTGTTCTTAATTTCCTCTGAGAGA
B11: AT3G55020.1: 5′ UTR of transcript; Ypt/Rab-GAP domain of gyp1p superfamily protein (nucleic acid)
DNA: GTCACACATGTAATAAACCTTGGTCGACAATCTCGCCCTTTCCATGTGATTTCTCCACTTCCTCTCTCTCTCTACTGCAACTTCCTCCTCCTGCTTCAACTTCATTCGGGTAATGATGAACTAGCGTAGAGATTTGGATCTTCTTCTTCGTCCTCTCACCAACTCTTCACCGGTTAGATCTCTTTTTCACGCTAACGA
B12: AT1G16700.1: 5′ UTR of transcript; Alpha-helical ferredoxin (nucleic acid)
DNA: AAATTAAGAGACATCTGATCGAATTTTGTTCCGACGACCGTGAATCACCAGCAAAGGATTCGTGTCAATGTTCTTGTGAGATCGAACTTTCTCTGGGTTCGTGCAGAAGCTTTGCTTTTTTGAGTATCGCGTTTAAGGCACATCGAAGAAGAGAGACCCTAATTTGATATTTTGAGTTCTATCG

System: Arabidopsis
Test: Ribo-seq and RNA-seq global translatome profiling (translational efficiency TE, mORF/uORF ribo-shift) upon elf18 treatment
Type: in vivo
Design: key to score (Ribo-shift): Up: ribo-shift up (i.e., increased mORF/uORF ratio); Down: ribo-shift down (i.e., decreased mORF/uORF ratio)
Settings: shift of mORF/uORF ratio, elf18 vs Mock; per uORF

Molecule	score (Ribo-shift)
B1	Up

Same assay, conditions: translational efficiency fold change, elf18 vs Mock; listed as shows 5′ UTR of the transcript

Molecule	score (TE change)
B2	TEdown (389 genes displayed decreased TEfc (|z|≥1.5))
B3	TEdown (389 genes displayed decreased TEfc (|z|≥1.5))
B4	TEdown (389 genes displayed decreased TEfc (|z|≥1.5))
B5	TEdown (389 genes displayed decreased TEfc (|z|≥1.5))
B6	TEdown (389 genes displayed decreased TEfc (|z|≥1.5))
B7	TEup (448 had increased TEfc)
B8	TEup (448 had increased TEfc)
B9	TEup (448 had increased TEfc)
B10	TEup (448 had increased TEfc)
B11	TEup (448 had increased TEfc)
B12	TEdown (389 genes displayed decreased TEfc (|z|≥1.5))
